Assay results taken from US20210115124A1 (Genentech, published 2021).
Positions count from the first letter of the chain named. Blank lines part the entries; values can stand above or below the binder they belong to.

Biological target: T1, human VEGF (hVEGF) (human, UniProt P15692 181-395)
T1 construct: also called VEGF-A
T1 sequence: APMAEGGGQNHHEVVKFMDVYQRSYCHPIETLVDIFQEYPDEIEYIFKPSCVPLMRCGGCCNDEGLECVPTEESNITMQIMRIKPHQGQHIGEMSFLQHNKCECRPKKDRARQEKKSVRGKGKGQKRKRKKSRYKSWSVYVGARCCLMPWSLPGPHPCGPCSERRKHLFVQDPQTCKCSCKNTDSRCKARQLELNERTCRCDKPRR
Assay: SPR single-cycle;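 note: fab variants injected over hVEGF immobilized on a CM5 chip (Biacore T200), threefold dilution series from 0.02 to 50 nM, kinetics fitted with a 1:1 Langmuir model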
Excerpt: To determine the binding affinity of selected Fab variants, SPR measurement with a BIACORE® T200 instrument was used. Briefly, series S sensor chip CM5 was activated with 1-ethyl-3-(3-dimethylaminopropyl) carbodiimide (EDC) and N-hydroxysuccinimide (NHS) reagents according to the supplier's instructions, and human VEGF (hVEGF) was coupled to achieve 50-80 response units (RU), then following by blocking un-reacted groups with 1M ethanolamine.
Three-fold serial dilutions of Fab in HBS-P buffer (0.01 M HEPES pH 7.4, 0.15 M NaCl, 0.005% surfactant P20) from low (0.02 nM) to high (50 nM) were injected (flow rate: 30 μl/min). The binding responses on hVEGF were corrected by subtracting of RU from a blank flow cell. The sensorgram was recorded and subject to reference and buffer subtraction before evaluating by BIACORE® T200 Evaluation Software (version 2.0). Association rates (kₒₙ) and dissociation rates (koff) were calculated using a simple one-to-one Langmuir binding model. The equilibrium dissociation constant (Kd) was calculated as the ratio koff/kₒₙ.

- Fold change (relative to G6.31): 1.6 fold
- Kd: 1.08 nM
- koff: 0.000565 s⁻¹
- kon: 524000 M⁻¹ s⁻¹
B1: G6.31 HC-A60E (Fab, name in Kabat numbering, V domains shown)
VH: EVQLVESGGGLVQPGGSLRLSCAASGFTISDYWIHWVRQAPGKGLEWVAGITPAGGYTYYEDSVKGRFTISADTSKNTAYLQMNSLRAEDTAVYYCARFVFFLPYAMDYWGQGTLVTVSS
VL: DIQMTQSPSSLSASVGDRVTITCRASQDVSTAVAWYQQKPGKAPKLLIYSASFLYSGVPSRFSGSGSGTDFTLTISSLQPEDFATYYCQQGYGNPFTFGQGTKVEIK
notes: Fab

- Fold change (relative to G6.31): 1.7 fold
- Kd: 0.974 nM
- koff: 0.000418 s⁻¹
- kon: 429000 M⁻¹ s⁻¹
B2: G6.31 LC-G57E (Fab, V domains shown)
VH: B1 VH with E61A
VL: B1 VL with G57E
notes: Fab

- Fold change (relative to G6.31): 0.2 fold
- Kd: 7.1 nM
- koff: 0.000558 s⁻¹
- kon: 78500 M⁻¹ s⁻¹
B3: G6.31 HC-S30E (Fab, name in Kabat numbering, V domains shown)
VH: B1 VH with S30E, E61A
VL: B1 VL
notes: Fab

- Fold change (relative to G6.31): 7.7 fold
- Kd: 0.222 nM
- koff: 0.00045 s⁻¹
- kon: 2.03e+06 M⁻¹ s⁻¹
B4: G6.31 HC-T77K (Fab, name in Kabat numbering, V domains shown)
VH: B1 VH with E61A, T78K
VL: B1 VL
notes: Fab

- Fold change (relative to G6.31): 4 fold
- Kd: 0.42 nM
- koff: 0.00041 s⁻¹
- kon: 975000 M⁻¹ s⁻¹
B5: G6.31 HC-T28K (Fab, name in Kabat numbering, V domains shown)
VH: B1 VH with T28K, E61A
VL: B1 VL
notes: Fab

- Fold change (relative to G6.31): 1.3 fold
- Kd: 1.27 nM
- koff: 0.000482 s⁻¹
- kon: 380000 M⁻¹ s⁻¹
B6: G6.31 HC-K43E (Fab, name in Kabat numbering, V domains shown)
VH: B1 VH with K43E, E61A
VL: B1 VL
notes: Fab

- Fold change (relative to G6.31): 0.9 fold
- Kd: 1.93 nM
- koff: 0.000477 s⁻¹
- kon: 248000 M⁻¹ s⁻¹
B7: G6.31 HC-T77E (Fab, name in Kabat numbering, V domains shown)
VH: B1 VH with E61A, T78E
VL: B1 VL
notes: Fab

- Fold change (relative to G6.31): 2.4 fold
- Kd: 0.715 nM
- koff: 0.000395 s⁻¹
- kon: 552000 M⁻¹ s⁻¹
B8: G6.31 HC-K64E (Fab, name in Kabat numbering, V domains shown)
VH: B1 VH with E61A, K65E
VL: B1 VL
notes: Fab

- Fold change (relative to G6.31): 3 fold
- Kd: 0.566 nM
- koff: 0.000352 s⁻¹
- kon: 621000 M⁻¹ s⁻¹
B9: G6.31 HC-T28E (Fab, name in Kabat numbering, V domains shown)
VH: B1 VH with T28E, E61A
VL: B1 VL
notes: Fab

- Fold change (relative to G6.31): 2.2 fold
- Kd: 0.788 nM
- koff: 0.000434 s⁻¹
- kon: 550000 M⁻¹ s⁻¹
B10: G6.31 HC-T73E (Fab, name in Kabat numbering, V domains shown)
VH: B1 VH with E61A, T74E
VL: B1 VL
notes: Fab

- Fold change (relative to G6.31): 1.3 fold
- Kd: 1.29 nM
- koff: 0.000513 s⁻¹
- kon: 397000 M⁻¹ s⁻¹
B11: G6.31 HC-T68K (Fab, name in Kabat numbering, V domains shown)
VH: B1 VH with E61A, T69K
VL: B1 VL
notes: Fab

- Fold change (relative to G6.31): 1.1 fold
- Kd: 1.56 nM
- koff: 0.000472 s⁻¹
- kon: 302000 M⁻¹ s⁻¹
B12: G6.31 HC-G65E (Fab, name in Kabat numbering, V domains shown)
VH: B1 VH with E61A, G66E
VL: B1 VL
notes: Fab

- Fold change (relative to G6.31): 0.8 fold
- Kd: 2.04 nM
- koff: 0.000444 s⁻¹
- kon: 217000 M⁻¹ s⁻¹
B13: G6.31 HC-K75E (Fab, name in Kabat numbering, V domains shown)
VH: B1 VH with E61A, K76E
VL: B1 VL
notes: Fab

- Fold change (relative to G6.31): 0.5 fold
- Kd: 3.6 nM
- koff: 0.000548 s⁻¹
- kon: 152000 M⁻¹ s⁻¹
B14: G6.31 HC-P41E (Fab, name in Kabat numbering, V domains shown)
VH: B1 VH with P41E, E61A
VL: B1 VL
notes: Fab

- Fold change (relative to G6.31): 1.7 fold
- Kd: 0.991 nM
- koff: 0.000433 s⁻¹
- kon: 437000 M⁻¹ s⁻¹
B15: G6.31 HC-S82bE (Fab, name in Kabat numbering, V domains shown)
VH: B1 VH with E61A, S85E
VL: B1 VL
notes: Fab

- Fold change (relative to G6.31): 0.6 fold
- Kd: 2.68 nM
- koff: 0.000462 s⁻¹
- kon: 172000 M⁻¹ s⁻¹
B16: G6.31 LC-A51E (Fab, V domains shown)
VH: B1 VH with E61A
VL: B1 VL with A51E
notes: Fab

- Fold change (relative to G6.31): 2.7 fold
- Kd: 0.62 nM
- koff: 0.000508 s⁻¹
- kon: 820000 M⁻¹ s⁻¹
B17: G6.31 HC-Y58E (Fab, name in Kabat numbering, V domains shown)
VH: B1 VH with Y59E, E61A
VL: B1 VL
notes: Fab

- Fold change (relative to G6.31): 0.8 fold
- Kd: 2.2 nM
- koff: 0.000495 s⁻¹
- kon: 225000 M⁻¹ s⁻¹
B18: G6.31 HC-Q81E (Fab, name in Kabat numbering, V domains shown)
VH: B1 VH with E61A, Q82E
VL: B1 VL
notes: Fab

- Fold change (relative to G6.31): 0.8 fold
- Kd: 2.11 nM
- koff: 0.000499 s⁻¹
- kon: 236000 M⁻¹ s⁻¹
B19: G6.31 HC-S74E (Fab, name in Kabat numbering, V domains shown)
VH: B1 VH with E61A, S75E
VL: B1 VL
notes: Fab

- Fold change (relative to G6.31): 1 fold
- Kd: 1.72 nM
- koff: 0.000467 s⁻¹
- kon: 271000 M⁻¹ s⁻¹
B20: G6.31 HC-N76E (Fab, name in Kabat numbering, V domains shown)
VH: B1 VH with E61A, N77E
VL: B1 VL
notes: Fab

- Fold change (relative to G6.31): 1.1 fold
- Kd: 1.48 nM
- koff: 0.000379 s⁻¹
- kon: 257000 M⁻¹ s⁻¹
B21: G6.31 HC-A71E (Fab, name in Kabat numbering, V domains shown)
VH: B1 VH with E61A, A72E
VL: B1 VL
notes: Fab

- Fold change (relative to G6.31): 1.8 fold
- Kd: 0.97 nM
- koff: 0.000554 s⁻¹
- kon: 571000 M⁻¹ s⁻¹
B22: G6.31 HC-P41R (Fab, name in Kabat numbering, V domains shown)
VH: B1 VH with P41R, E61A
VL: B1 VL
notes: Fab

- Fold change (relative to G6.31): 0.8 fold
- Kd: 2.05 nM
- koff: 0.00044 s⁻¹
- kon: 215000 M⁻¹ s⁻¹
B23: G6.31 HC-T68E (Fab, name in Kabat numbering, V domains shown)
VH: B1 VH with E61A, T69E
VL: B1 VL
notes: Fab

- Fold change (relative to G6.31): 1.8 fold
- Kd: 0.965 nM
- koff: 0.000699 s⁻¹
- kon: 724000 M⁻¹ s⁻¹
B24: G6.31 HC-Y56K (Fab, name in Kabat numbering, V domains shown)
VH: B1 VH with Y57K, E61A
VL: B1 VL
notes: Fab
